Assay [1] has as its target T1, human MET, cell-surface expressed (human, UniProt P08581 25-1390). The experiment in a line: cell-based or functional assay.
Assay [2] concerns the target MET without the 47 amino acids encoded by exon 14 (H596 cells) (human) (UniProt P08581). Briefly: cell-based or functional assay.
The target of assay [3] is T2, human MET-ECD with a His tag (MET-ECD-His) (human, UniProt P08581 25-932).
T2 construct: The ELISA sections speak of MET-ECD, MET-ECD-His or His-tagged MET extracellular domain; also called hu-MET-ECD; human cMET ECD
Briefly: competition ELISA on immobilised MET-ECD; competitor Ab237C. For orientation: In an ELISA, binding on a coated surface is turned into a signal by an enzyme label.
Description: The binding of anti-MET antibodies to recombinant MET extracellular domain (“MET-ECD”) was analyzed by competition ELISA. […] The reaction was stopped with 3M HCl, absorbance read at 450 nm on a Dynex Technologies MRX TC II plate reader and the binding curves plotted. Binding curves were used to calculate IC₅₀ values for each test antibody normalized to the IC₅₀ of the reference antibody.

Assay [4] concerns the target T1, human MET, cell-surface expressed. Briefly: FACS competition on A549 cells; competitor Ab237C. As to the method:
The binding of anti-MET antibodies to cell surface MET was analyzed by competition FACS analysis using A549 NSCLC cells (ATCC cat. no. CCL-185). […] A total of 3×10⁵ A549 NSCLC cells were added per dilution of antibody and incubated on ice for 1 hour. Cells were washed and a 1:100 dilution of PE-labeled goat anti-rat IgG antibody (BioLegend cat. no. 405406) in FACS buffer was added before incubation on ice for 1 hour. […] The geometric mean fluorescence intensity was plotted against antibody concentration. The IC₅₀ of each of the test antibodies was calculated relative to the IC₅₀ of the reference antibody.

In turn, “HGF (from UniProt P14210 32-728) (ligand)” came in with a receptor degradation, cell lines expressing wild-type MET such as A549 and U87MG, 1 nM HGF in assay [1] of 80%. This molecule registered a receptor degradation, H596 cells, 1 nM HGF for 24 hrs in assay [2] of 30%.

B1: Ab241 (antibody, human IgG1, V domains shown)
VH: EVQLVESGGGLVQPGGSLKLSCAASGFTFSDSYMAWVRQAPGKGLEWVASISSDGGGTYYRDSVKGRFTISRDNAKSSLYLQMDSLRTEDTATYYCTTEGIYTTDYYPYCFNYWGQGVMVTVSS
VL: DIQMTQSPSSLSASVGDRVTITCLASADIHSNLAWYQQKPGKAPQLLIYYGNNLNDGVPSRFSGSGSGTDYTLKINSLQSEDVAIYFCQQSYDSPPTFGQGTKLEIKR
notes: Composite human (humanized) antibody, human IgG1, kappa
In the case of B1, the “IC50 relative to the IC50 of Ab237C” value in assay [3] is ~0.97 relative to IC50 of Ab237C. Further, the “relative IC50 (against Ab237C)” value in assay [4] was ~1.22 relative to IC50 of Ab237C.

The record behind these values is patent publication US20180057595A1 (CELLDEX THERAPEUTICS, published 2018).
